Test results from the DeepSol protein solubility set.

experiment: soluble on expression in E. coli; label from the status in PepcDB or PDB records

| Sequence | soluble on expression in E. coli |
| --- | --- |
| MQASELTPKWYVAPVSIKDEAVVKNLKAKIQALGFNHEIVDVKVLKEREVHEEVYSLKSGKLPRSLKNTTFNKWFVLDDYRYLRVKISEKNLLGRYIYIKMIYSEDAWRIVRNFPGITGIVGSSGRGALPIPLDEKDANNLEQMLKGISINPSKRIMLTNTAIIEMDSDKFDEKFQYILKQKQAIQKPKEDEDSEIVDAEKLKEAFKKLQNSQEQDEWKEKATIIQSEQTKLDPSVLVPFLGKYEILDTDNKVEQLFEFSVGNLVEVHLTDTIHVQGQIKALYQGTVNKAVVEIELTSKTQLINLPLENLSFVEFE | soluble |
| SAEKFDHLEEHLEKFVENIRQLGIIVSDFQPSSQAGLNQKLNFIVTGLQDIDKCRQQLHDITVPLEVFEYIDQGRNPQLYTKECLERALAKNEQVKGKIDTMKKFKSLLIQELSKVFPEDMAKYRSIRGEDHPPS | soluble |
| MGSDKIHHHHHHAQYTNIQTWGQKLYYNGSDYPGTFLKLKVAVANPRISGTGGKVVFYDSESSQYNYIEVKGVYQSSDARLKTNITPLNSGLGTILGLKPVSYNWKSETSQLRSAEAVPSKAFGFLAQEVAEVMPEIVTLSSTGDSLVDYTAVIPVLVQAVKELDATIQQLELQLDEKANLSDLQNNKNLTSKSLLSNAVMNQNTPNPFNSTTNISFTIPTSARSAFISICNLQGTQVKKFDIATRGEGSIMVSFSDLGVAGMYMYSLVVDGQLISTKRMLLVQ | not soluble |
| MLTALKTDTGKIRQHNEDDAGIFKGKDEFILAVVADGMGGHLAGDVASKMAVKAMGEKWNEAETIPTAPSECEKWLIEQILSVNSKIYDHAQAHEECQGMGTTIVCALFTGKTVSVAHIGDSRCYLLQDDDFVQVTEDHSLVNELVRTGEISREDAEHHPRKNVLTKALGTDQLVSIDTRSFDIEPGDKLLLCSDGLTNKVEGTELKDILQSDSAPQEKVNLLVDKANQNGGEDNITAVLLELALQVEEGEDQC | soluble |
| MGSDKIHHHHHHMSLSSPASRPPLQIRATPVWSPQRDENAEHIVLSPDEQYELGRLGEIIEYRTAKLEILSQSEPADFLYLLIEGVVQACHSLKDGQRQIVAFYWPGDIFGLAEKGLYVNSSEAVTPCSVYRFPFRKLEKFLLEHPRIQQGFFVKAVHEIRTAQRHTITIGQLELPQRLAAFLVDCSEHDRYFDSESSTLSLPMLRYDIADYLGTSVEAVSRTFALLEKNGLVQRKGPRKLEISMKKLIDFSGIA | not soluble |
| MFVKNVNFYYRQILEKFENSYFAEDLTKVIIGIDCDYLDANELSFSEFKAKYYEALSKNKICDFAGFFGVFSANFVSLFEKIPLSSKKNYDFPLFLFANAKAYLIYEKNSKMFFKFGASKYFEYLKDDIEPMKKKQKNDFEILNSLEDEKNDFLKMCEKAKEYLLSGDIFQVVLSKQLCIKHQVNAFDYYESLSALNPSAYMFYFPSKYGVVLGSSPEFLLKIKKREIYLAPIAGTRNLENNCDLLALEKDLLSDEKELSEHKMLVDLARNDASKFGTQTRVENLFSIIKNKFVMHIVSEVYANMKEDASIFDVIEAVFPAGTLSGAPKIRALEITSELEDCDRGIYGGAVGFLNFNEDITLAILIRCAFFTQDKAYLASGAGIVLQSESQKEYAEICAKRKALLVAFENLKKENQ | not soluble |
| MATTLKPVDAVVVGFGWTGAILAKELTEAGLNVVALERGENRDTYPDGAYPNTLDELTYNTRGKLFQNLSKSTVSIRHGINDTALPYRQLSAFLPGDGVGGAGLHWSGVHFRIMPEELRLRSHYEERYGKKFIPEGMTIQDYGVSYEELEPHFDFAEKVFGTSGTAHTVKGQVVGKGNPFAADRSDDFPLPALRQVYSAQLFRKAAEELGLHPYDLPAANASGPWTNPYGVQMGPCNFCGFCSGYACYMYSKASPNLNILPALRQTPLFELRANCNVLKVNLDSDGRQATGVTYVDAQGREIVQPAKLVIISAFQFHNVRLLLLSGIGKPYDPRTGEGVVGKNFAYQNMATIKAFFDKDVHTNPFVGTGGGGVAVDDFNADNFDHGPLGFVGGSPMWVNQAGSKPIGGLAVPPGTPSWGSGWKQAVKDAYTHTVSMDAHGSNMTYRDNYLDLDPTYKDAYGQPLLRMTFDWKDNEIRMSRYVTEHMRKIAEAMNPKAISVSVKNFGDHFNTRVYQTTHLLGGAIMGSDPKTSVLNRYLQSWDVHNVFVMGASAFPQGTGYNPTGLVAALAYWSAKAIREQYLKNPGPLVQALEHHHHHH | not soluble |
| EVQLQQSGPELVKPGASVKISCKASGYSFTGHLLNWVKQSHGKNLEWIGLVHPHNGAITYNQKFKDKATLTVDRSSTTAYIELVRLTSNDSAVYYCAREDFRYHYSMDYWGQGTSVTVSSAKTTPPSVYPLAPVCGDTTGSSVTLGCLVKGYFPEPVTLTWNSGSLSSGVHTFPAVLQSDLYTLSSSVTVTSSTWPSQSVTCNVAHPASSTKVDKKIVPK | soluble |
| GMSSNLHGIAIGIERSQDDFYLAFKAVGKLTHEDYEQMTPLLESALAGIKTPEIVALIDITELDGLSLHAAWDDLKLGLKHGKEFKRVAIIGQGELQEWATRVANWFTPGEFKFFEDKRDALDWLC | soluble |
| MSLKILIGEFAVGTDIEKSLIPEGAAMLKTLAESFVRVGHEVCYPSAGTEIGSGTALKSTADSFVQVIEREAKNCDAGLLIAPDGMLPELNRILAENTANLGCSPEAAARCADKLRCTEILKTAGINAPEIVREAEEGKKYVIKPRFGCGAEATYLVSGFENTGEFIASEYIEGEHLSVSLIAGNKPLPLTVNRQFIEFNEKKDGINPENIEVSGIKYNGSLTPYETPRRGELYETAVSAVKYLGCFGYVGVDIVLSEVPYVVDVNPRPTASIFGISRVMREEIGELLLTNRFGTLPDSVRVEGEYHFSKDMLGELFGKNEGHHHHHH | soluble |
| MDIMLVLWNGTPPMTRPEIEKVINTKKKLASTTILSLLTRLESKNFVEVTKQGKLNLYTPLVSQSDYQAHESQSVLEKLYGNSLKKFVTSLYQGKKISSEEIHELSDFLKELEDGEE | not soluble |
| MGSDKIHHHHHHMKIAITGKGGVGKTFIASTLMRLFEKNGFKVIGVDCDPNPTLALAFGVEEEIVPLSKRHDIIEERTGAKPGTYGNIFKINPKVDDLIDKVGYKIGNITLLVMGTIEEGGEGCVCPASVLLRRLLRHLILKRDEVVILDMEAGIEHFGRKTIDTVDLMLIVIEPTKKSLITAKRMKKLANDLGIKNLGVIVNKVRNEDKELLKDIIKEELGLEVLGFVPYDEEVIKSEFLGKPINLDSKAAKEIEKIFNYIIKLKNTT | not soluble |
| MSLENLKNIQPREDFNWEEFEAGGVHAAVSRQEQEAAYDKTLNTIKEKEVVMGRVTAINKREVVINVGYKSEGVVPATEFRYNPELKVGDEVEVYIENQEDKKGQLVLSHRKARAARSWERVNEALEKDEIVKGYVKCRTKGGMIVDVFGIEAFLPGSQIDVRPIRDYDAFVEKTMEFKIVKINQEYKNVVVSHKVLIEAELEQQKKEIIGKLEKGQVLEGIVKNITSYGVFIDLGGVDGLIHITDLSWGRVAHPEEIVQLDQKINVVILDFDEDRKRIALGLKQLMPHPWDALDSELKVGDKVKGKVVVMADYGAFVEIAQGVEGLIHVSEMSWTQHLRSAQDFLHVGDEVEAVILTLDREERKMSLGLKQLKPDPWADIETRFPVGSRHHARVRNFTNFGVFVEIEEGVDGLIHISDLSWTKKIKHPSEFTEVGADIEVQVIEIDKENRRLSLGHKQLEENPWDVFETVFTVGSIHEGTVIEVMDKGAVVSLPYGVEGFATPKHMVKEDGSQAVLEEKLPFKVIEFNKDAKRIIVSHSRVFEDEQKMAQREANAERKAEAKAAQKEAAAEAANPAQAVEKATLGDLGELAALKEKLSENEGHHHHHH | soluble |
| LCPDPDDDEGLIVSDSDGMIVDVTEPLPRVTGYSKSELLGMETAALFWLRDGDNHSGHTRAPVSETEGRSHGLLECADGSRITVEQRSYTVRPEAETHVCTTVLFPGDGE | not soluble |
| MHAFPLTLDNRLAEALPLWRNLARTDRAPRRNIDLADWKADWRELIAALDRFSRSHGYRQPFAAQGHAALENAWAWGQAAENASTLLLKAIDRGLAGAELRSIYLETAALWLDYSRLLGAARDSLREQGEVDFETAPALAPRTGQYPFALQLLAMGVLLDAQELIPALVEEVLQFDTDRLLDYLGAAALGLTSASEETFHPRPFGQLRAFFEEADGSDAQALAPYLQSQYREFFQLSPKAQKKTRRLTGPYAWGWWAMEVSALGVLYGWDDGVLRASPHYLGDLVDYARARGDA | soluble |
